# In PMC11997821:
# Columns and labels:
# [1] = biological target: BsaXI S subunit (476-residue specificity subunit of R.M.BsaXI) (Bacillus stearothermophilus); assay: single-particle EM, 2D classification of particles (negative stain and cryo-EM); DNA-free and DNA-bound BsaXI particles, twice selected
# [2] = biological target: BsaXI S subunit (476-residue specificity subunit of R.M.BsaXI) (Bacillus stearothermophilus); assay: SEC; Superdex75 column in NEB Diluent B; pooled, separately expressed RM and S subunits after chitin, DEAE, heparin and Source columns
substance,measurement,setting,value
BsaXI RM subunit (916-residue RM fusion subunit of the Type IIB restriction-modification enzyme R.M.BsaXI),stoichiometry N (RM subunits per S subunit),[1],2
same,stoichiometry N (RM subunits per S subunit),[2],2
